{
  "source": "paper PMC6391921",
  "target": "full-length H7 HA trimer (influenza A virus (H7))",
  "experiment": "BLI",
  "note": "pKd: −log10 of the molar value.",
  "data": [
    {"substance": "CT149 Fab", "values": [
      {"measurement": "pKd", "result": 8.43},
      {"measurement": "koff", "result": 0.0031, "unit": "s⁻¹"},
      {"measurement": "kon", "result": 360000, "unit": "M⁻¹ s⁻¹"}
    ]}
  ]
}
